These results are taken from US20230266303A1, “SYSTEM” (GTINVENT LIMITED, priority 2020, published 2023).

This data set deals with dSH-SY5Y cells. The experiment in a line: ReadyProbes cell viability assay (cell death) after exposure to dGAE. The format is cell-based. Conditions: 24 h incubation; for percentage cell death: 1 μM, buffer only 21.6±1.6%. On the procedure: Undifferentiated SH-SY5Y human neuroblastoma cells were grown in Dulbecco's Modified Eagle Medium/Nutrient Mixture F-12 (DMEM/F-12) supplemented with 10% Foetal Calf Serum (FCS), 1% Penicillin/Streptomycin (P/S) and 1% L-glutamine. For differentiation, SH-SY5Y cells were plated at a density of 50,000 cells per well in 24-well plates or 300,000 cells per well in 6-well plates. For immunofluorescence, cells were plated onto Menzel-Gläser coverslips (Thermo Scientific). For live-cell imaging, cells were plated on 35-mm dishes on a 1.5-mm coverslip (Mattek). On the first day of differentiation, media was replaced with low-serum culture media (DMEM/F-12 containing 1% FCS, 1% P/S and 1% L-glutamine) containing 10 μM all-trans retinoic acid (RA) (Sigma-Aldrich) and cells were incubated for 48 h. On day 3, this process was repeated with fresh RA and cells were incubated for a further 48 h. On day 5, the cells were washed once in serum-free culture media to remove traces of serum. […] Differentiated cells (dSH-SY5Y) were ready to use for experiments on day 7. […]
Following the addition of dGAE, cell viability was measured using ReadyProbes® Cell Viability Imaging Kit (Life Technologies). […] DAPI fluorescence was captured using a G 365 excitation filter and a LP 420 emission filter with a FT 395 dichroic. Green fluorescence was captured using a FITC filter set (BP 450-490 excitation filter, BP 515-565 emission filter and FT 510 dichroic). Identical acquisition settings were used for all replicates and images were analysed using FIJI. Six fields of view were taken per sample and an average of 4500 cells were analysed per condition. The proportion of buffer-treated cell death was quantified by converting the images to grayscale followed by manually adjusting the threshold and converting it into a binary image to highlight live DAPI-stained cells. The number of cells was automatically counted. The dead cells were counted in the same way and cell death was expressed as a percentage of buffer-treated cells. […]

“dGAE: recombinant truncated tau, 95 residues fragment of Tau (2N4R), Ile-297 to Glu-391, SEQ ID NO: 4”: the percentage cell death is reported as 34±2.9% (aggregated dGAE (100 μM agitated 72 h)) and 24.1±1.2% (soluble dGAE (0 h, no agitation)). Where the note is “soluble dGAE up to 20 μM”, the “cell death on increasing concentration” value is recorded as “no further increase in cell death”.
